Assay results: article PMC2935968, “Structural Basis for Assembly of Hsp90-Sgt1-CHORD Protein Complexes: Implications for Chaperoning of NLR Innate Immunity Receptors” (Molecular Cell, 2010)

B3: CS domain of cress (Arabidopsis thaliana) Sgt1a (domain or fragment)
chain: AKYRHEYYQKPEEVVVTVFAKGIPKQNVNIDFGEQILSVVIEVPGEDAYYLQPRLFGKIIPDKCKYEVLSTKIEICLAKADIITWASLEHGK
notes: Sgt1a, Arabidopsis thaliana, CS domain; construct as described previously (Boter et al., 2007; Zhang et al., 2008); also called Sgt1-CS; Sgt-CS

Experiments:
[1] = target: Hsp90 ( (Arabidopsis, H. vulgare or …, UniProt Q7XJ80 1-700)); experiment: cell-based or functional assay
Hsp90 (, sequence (Q7XJ80 entry or part of it): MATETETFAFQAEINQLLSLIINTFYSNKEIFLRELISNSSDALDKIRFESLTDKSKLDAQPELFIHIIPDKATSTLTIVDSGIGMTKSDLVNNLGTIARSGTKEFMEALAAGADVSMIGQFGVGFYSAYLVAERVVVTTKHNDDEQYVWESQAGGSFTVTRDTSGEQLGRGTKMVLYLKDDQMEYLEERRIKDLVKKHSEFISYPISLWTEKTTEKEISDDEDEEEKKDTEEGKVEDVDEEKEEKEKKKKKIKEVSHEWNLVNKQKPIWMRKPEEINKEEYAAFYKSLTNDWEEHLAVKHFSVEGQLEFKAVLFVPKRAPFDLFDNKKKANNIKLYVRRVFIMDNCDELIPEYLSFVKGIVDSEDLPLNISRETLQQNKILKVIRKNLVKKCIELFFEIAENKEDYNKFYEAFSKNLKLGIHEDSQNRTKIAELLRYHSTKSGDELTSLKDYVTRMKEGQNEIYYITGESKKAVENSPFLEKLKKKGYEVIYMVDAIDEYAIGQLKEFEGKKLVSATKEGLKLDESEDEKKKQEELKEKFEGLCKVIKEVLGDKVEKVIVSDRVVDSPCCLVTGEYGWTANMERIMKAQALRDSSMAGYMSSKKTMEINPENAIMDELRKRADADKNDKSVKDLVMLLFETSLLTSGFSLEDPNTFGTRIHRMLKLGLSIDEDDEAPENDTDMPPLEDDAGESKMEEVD

[2] = target: B3; experiment: ITC; Rar1-CHORDII with Sgt1-CS (Figure S2C); conditions not shown; conditions: both partners purified
[3] = target: T1, GST-Rar1 (wild type) (Arabidopsis thaliana, UniProt Q9SE33 1-226); experiment: pull-down; GST-Rar1 as bait, Hsp90, untagged Rar1 and Sgt1-CS present; conditions: both partners purified
T1 construct: Rar1, Arabidopsis thaliana, wild type; Construct details are in the Supplemental Information; also called Wild-type GST-Rar1; GST-tagged Rar1
T1 sequence (looked up): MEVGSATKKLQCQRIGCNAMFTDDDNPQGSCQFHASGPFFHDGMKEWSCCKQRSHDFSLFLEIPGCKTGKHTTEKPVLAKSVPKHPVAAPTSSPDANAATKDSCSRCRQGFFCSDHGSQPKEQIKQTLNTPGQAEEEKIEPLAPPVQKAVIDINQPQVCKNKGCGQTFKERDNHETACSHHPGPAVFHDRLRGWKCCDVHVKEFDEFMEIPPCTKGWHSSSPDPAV

B1: Rar1 (wild type, not GST-tagged) (natural protein, Arabidopsis thaliana, UniProt Q9SE33 1-226, looked up)
chain: MEVGSATKKLQCQRIGCNAMFTDDDNPQGSCQFHASGPFFHDGMKEWSCCKQRSHDFSLFLEIPGCKTGKHTTEKPVLAKSVPKHPVAAPTSSPDANAATKDSCSRCRQGFFCSDHGSQPKEQIKQTLNTPGQAEEEKIEPLAPPVQKAVIDINQPQVCKNKGCGQTFKERDNHETACSHHPGPAVFHDRLRGWKCCDVHVKEFDEFMEIPPCTKGWHSSSPDPAV
**Q.** B1 was tested. Which “ATP turnover of Ta-Hsp90 with increasing concentrations of Rar1 (up to 20-fold excess)” value [1] did it give?
**A.** 2 fold

B2: CHORDII domain of cress (Arabidopsis thaliana) Rar1 (domain or fragment)
chain: AVIDINQPQVCKNKGCGQTFKERDNHETACSHHPGPAVFHDRLRGWKCCDVHVKEFDEFMEIPPCTKGWHSSS
notes: Rar1, Arabidopsis thaliana, CHORDII domain; also called Rar1-CHORDII; isolated CHORDII
**Q.** How did the Kd [2] turn out when B2 was run?
**A.** 3.09 ± 0.15 µM

**Q.** Does B3 bind [3]?
**A.** binds
